# Results reported in patent EP1132405A1 (Takeda Chemical Industries, Ltd., dated 2001).
# Ends that are not written are not given here.
# Biological target: rat cerebellum-derived G protein-coupled receptor protein rOT7T022L (rat, UniProt Q9EP86 1-432)
# Assay: cell-based or functional assay
# Sequence of rat cerebellum-derived G protein-coupled receptor protein rOT7T022L (Q9EP86 whole entry, form in doubt): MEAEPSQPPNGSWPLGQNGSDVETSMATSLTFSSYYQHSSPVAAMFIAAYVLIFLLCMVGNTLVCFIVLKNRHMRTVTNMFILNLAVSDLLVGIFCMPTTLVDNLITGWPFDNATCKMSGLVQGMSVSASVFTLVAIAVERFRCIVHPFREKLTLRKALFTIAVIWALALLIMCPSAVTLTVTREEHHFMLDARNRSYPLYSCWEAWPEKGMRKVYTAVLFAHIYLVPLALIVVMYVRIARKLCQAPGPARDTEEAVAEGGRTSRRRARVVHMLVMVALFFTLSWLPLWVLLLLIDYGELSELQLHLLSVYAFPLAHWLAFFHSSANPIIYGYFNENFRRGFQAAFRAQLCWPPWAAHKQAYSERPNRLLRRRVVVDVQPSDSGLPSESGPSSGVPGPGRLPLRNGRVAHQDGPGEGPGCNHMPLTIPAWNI
binder,measurement,value
MPHSFANLPLRF-NH2 [peptide MPHSFANLPLRFamide (Met-Pro-His-Ser-Phe-Ala-Asn-Leu-Pro-Leu-Arg-Phe-NH2)],"IC50 of cAMP production suppression (forskolin-stimulated, cAMP EIA)",0.5 nM
